Results from patent publication US20170166618A1 (Novartis, published 2017).

Target: FGF23 receptor
Test: cell-based or functional assay

- Egr-1-luciferase reporter activity, fold change at about 0.6 nM, with heparin (20 µg/ml): 2 fold change
- Egr-1-luciferase reporter activity, fold change at about 1.21 nM, no heparin: 1.2 fold change
- Egr-1-luciferase reporter activity, fold change at about 19.3 nM, no heparin: 2.4 fold change
B1: sKlotho-FGF23-6×His fusion polypeptide (ligand)
chain: EPGDGAQTWARFSRPPAPEAAGLFQGTFPDGFLWAVGSAAYQTEGGWQQHGKGASIWDTFTHHPLAPPGDSRNASLPLGAPSPLQPATGDVASDSYNNVFRDTEALRELGVTHYRFSISWARVLPNGSAGVPNREGLRYYRRLLERLRELGVQPVVTLYHWDLPQRLQDAYGGWANRALADHFRDYAELCFRHFGGQVKYWITIDNPYVVAWHGYATGRLAPGIRGSPRLGYLVAHNLLLAHAKVWHLYNTSFRPTQGGQVSIALSSHWINPRRMTDHSIKECQKSLDFVLGWFAKPVFIDGDYPESMKNNLSSILPDFTESEKKFIKGTADFFALCFGPTLSFQLLDPHMKFRQLESPNLRQLLSWIDLEFNHPQIFIVENGWFVSGTTKRDDAKYMYYLKKFIMETLKAIKLDGVDVIGYTAWSLMDGFEWHRGYSIRRGLFYVDFLSQDKMLLPKSSALFYQKLIEKNGFPPLPENQPLEGTFPCDFAWGVVDNYIQVDTTLSQFTDLNVYLWDVHHSKRLIKVDGVVTKKRKSYCVDFAAIQPQIALLQEMHVTHFRFSLDWALILPLGNQSQVNHTILQYYRCMASELVRVNITPVVALWQPMAPNQGLPRLLARQGAWENPYTALAFAEYARLCFQELGHHVKLWITMNEPYTRNMTYSAGHNLLKAHALAWHVYNEKFRHAQNGKISIALQADWIEPACPFSQKDKEVAERVLEFDIGWLAEPIFGSGDYPWVMRDWLNQRNNFLLPYFTEDEKKLIQGTFDFLALSHYTTILVDSEKEDPIKYNDYLEVQEMTDITWLNSPSQVAVVPWGLRKVLNWLKFKYGDLPMYIISNGIDDGLHAEDDQLRVYYMQNYINEALKAHILDGINLCGYFAYSFNDRTAPRFGLYRYAADQFEPKASMKHYRKIIDSNGFPGPETLERFCPEEFTVCTECSFFHTRKSLGSGGGGSGGGGSGGGGSLKYPNASPLLGSSWGGLIHLYTATARNSYHLQIHKNGHVDGAPHQTIYSALMIRSEDAGFVVITGVMSRRYLCMDFRGNIFGSHYFDPENCRFQHQTLENGYDVYHSPQYHFLVSLGRAKRAFLPGMNPPPYSQFLSRRNEIPLIHFNTPIPRRHTQSAEDDSERDPLNVLKPRARMTPAPASCSQELPSAEDNSPMASDPLGVVRGGRVNTHAGGTGPEGCRPFAKFIHHHHHH
